The data set in a line: label from the status in PepcDB records.
As for “MSGSPGIESVPGPELPKIEFLDRFNAKNQKFYAENDARFKDSPLLKKLLENSKLNKEKNEREIQDKYCLRGAEWGVGDCSTTGMTDEEKEKFITMLKKKTGVE”, the protein production entry is listed as “failed”.
As for “MLGEFKHYKTRLAHGGIPQEVQNLLLEYGVEIFAEMLVEGLSRIKRCTDEGRVLMSLDLQVLINGLQHFVPTKVKPKLQIVETFIKAYYLPETEYVHWARAHPEYTKAQVVGLVNLVATMKGWKRKTRLEVIEKIESASM”, the protein production entry was “failed”.
Take “MFNAYREYWNNITTMNASATRAQYWWPQLINYLVLGIYSAITGVYRYIEVTPNDGTIIKEWNTVTIIFFLLTALIWLANFTVRARRLHDRDHSNWWILFYLLPFIGTLVIFITLILPSKSHTRWPVNQSEI”: the protein production entry was “failed”.
Take “PNILYKIDNQYPYFTKNEKKIAQFILNYPHKVVNMTSQEIANQLETSSTSIIRLSKKVTPGGFNELKTRLSKFLPKEVTQYNVELVDNESTISLKNKLHSRSKAAL”: the protein production entry was “not failed”.
In the case of “MIAQQFNRARHILRHNLVRPFYQPKFYLESGKLAGFEALLRWYDEDNQIQLPKLIINAFEDYSLASRLSEKMQLNIFKDMASWINQGLQLVPVSINAAPVEFLKDNYAELLLERLNQFEIPYHLIEIEITEHLLDDQGKNFISRALAKLKQNGIRIALDDFGTGHSSLTRLANLPVDCLKIDCDFVQRMEQEKFISALVQSVILMSNNLGIDVVAEGIESQEQLELLKQQGCEVGQGFLFSQALAPENARALLS”, the protein production entry is on record as “failed”.
Turning to “MSLAVKPGEPLPDFLLLDPKGQPVTPATVSKPAVIVFWASWCTVCKAEFPGLHRVAEETGVPFYVISREPRDTREVVLEYMKTYPRFIPLLASDRDRPHEVAARFKVLGQPWTFVVDREGKVVALFAGRAGREALLDALLLAGADLEGHHHHHH”, the protein production entry was “not failed”.
As for “MKIDKLFIKSIILTFLSMNLLFMILIMLGDLFVNLLNYLEKNIGLKDILYIYYLYLPKAFSDGVALSFLFAISNLIGNLSMRNEIIGLFSCGVPLTRILKPIILISIFISVVLFFFDNYLVIDTIARRDVLIKNSIGDSRSGDKTIIIRDFAREIYNIKSYDIDENTFANLMIIIKDNKDEFQTRYDINKAEWKDNKWRLYGIREFVKVGKKIKENAYDVLDGTGIIKLAPDYIRTVMLSSKALNFTKLINWISFLKAERLNYSDAFFDLLNRIFFSFRLILLSFTVGFIALALKKNIFILSLLNSIAFAVVYVISIVIFNFLADLGYLHIYIASSFTTIFFLIINFFVYRIVRK”, the protein production result is recorded as “failed”.
Turning to “QKRPLIMIGGSSSTRTDFDDIVRSLNEQQHHPLITLTVKANQKLAFKEKRVENTNLNDALIVIFFEDSTDSTENIMTQTNGLAKAIRYLQRHQHLTTANALGYSNGGLIWSRYLAGLSSSKPLAVHDLMLIGTPFLGTDAAH”, the protein production result is on record as “failed”.
On to “MINFFDLFLSDFLTSLRLFCKVWDEQTTLQALLEHVRAIPGHCQKKILTKLLVTDIWDKEDTKLLAALKHIDVRPTRVACRPSLQVLGLYNDVVTVFQTHGMGWYREIDEDVYPKLVKEFIATCRLTYANPENPKASQGTLTFFLNKKHYNKTMFEIYDMYGFTKGEAVEFSKLSPTHITSLLSTTNPVFEHNEQYLVPDPSKTVPRRRRTAEAQPTDEHVISNDEIYEDYAYPTSLAHAQPYLLLPEDPTPYRVSPPPAGDDISQQMAWMIALTRKNNSMMHKMWRAISRIRPCVCTRRGGVDDANRENQSKTIEDRHAERLVPAAGPSGASTSQPPPEHSQAVA”, for which the protein production result was “not failed”.
On to “MDMLFQWLLLTAAVAAGWAVGRYGNRSGRASRAIMDEDSVRDRLQFLFTNYSDQAVDNFVQSLAVNKDTVSLHLSIGSHFRNKGETDRAILIHQNLLARPELPARYSPQVTQELAMDYLNAGLLDRAEALFHQLMGDREYGRRSAIALIELYQQEREWEKAAQVAKTLTRSDADPATFKALAYITCELSDGALSRNDDRWTAQKLAKEALDYDRSCVRATLLLMKLQIRQGNFREAANQSLKIFDQNPEFGPEAIDRLMKLEREHGDVSRLYKKLRKLYEQYPSTSLLLALVESVERSSGRPAAIDLLRMELETRPSVRGLLRLVEMAGYEKGMTTDEGRLVSRIGHLILANRPVYRCVSCGFSGQQLHWLCPSCKQWETVRPIQGVEAE”, for which the protein production entry is “failed”.
Consider “MEDEHSRQAYVDQLGLLEEGADEVFEEILAAATSYFQTPIALISILDHQRQWFRASIGLDIRQTPRRDSFCAYAILGKGVFEVADATLDPRFRDNPYVQGEPRIRFYAGAPLATAEGLNLGSLCVIDREPRGPLAERDVAMLEHFARLVMARIHTLRSTNYIDEPTGLYNRLRLQEDVSLRLQRDGALTVIAADLLPLALLNTIIRTLGYPFSNDLMLEARDRIRAELPDFTLYKISPTRFGLLLPRQQQEETESVCLRLLRAFESPVVCRGIPIKANVGLGVLPLADDTLDGDQDWLRLVVSAADDARDRGVGWARYNPPLDQAQQRAFTLLTSLSQAIGTEEGFHLVYQPKIDLPTGRCTGVEALLRWRHPQLGFVSPAEFVPLAEKTALMRPLSDWVLRHAMAQLAQWNARNIPLRLAINVSASDMEDSSFLEEAVRLAKTYDIDLSALELEFTESVLIRDASAVGSVLLRARELGMGIAVDDFGTGYSNWTYLRDLPITAIKLDQSFTRDLAGSPKAQSVTQAVIGLASQLGYRVVAEGIETHDTFHLLQAWGCHEGQGYLIAQPMLPEQLEDWLRRLEHHHHHH”, for which the protein production result is on record as “failed”.
For the sequence “MSEREHWQRVYESKPSDAVSWFQAEATLSLDLIRRIGAPREAAIIDVGGGASTLVDGLLAEGFGDLTVLDLSDAALRVARNRLGARGEEVRWIAGDITGVDLPEATYDVWHDRAVFHFLTTAEARRAYVRQVMKAVRHGGHVIVATFAADGPTECSGLPVMRYDADELHAEFGSAFQLTEHRDEHHVTPAGRVQHFVYCHCLKRLLEHHHHHH”, the protein production entry is “failed”.
Consider “MGNVGLLFVGAVLFMNGLLLLGKVDAKAAAVFNLFIGALQVLTPTYLIFTANGDPMKILAASGIYLFGFTYLYVGIGLLTGLDSTGVGYYSLFVAVAALGYSFVNFRLFKDYPFGVIWLYWAYLWFLFFLLLGLKKDDLKIYTGWVTAIEGWVTGAIPAGLLLSGYWKHPTETAIALAVFGVVVFVGLWPRTHRTPRPTSAAPRTGGVGAPT”, for which the protein production result is on record as “failed”.
As to “DGRCISLLKILMTNFCIFDCAYCVNRVSSRVERARFSVEEVVTLTVEFYRRNYIEGLFLSSGIIRSPDDTMADMVRIAKTLREREHFRGYIHLKTIPDAAPELIEQAGLYADRLSINVELPTEAGLDRFAPEKSATGIRKAMAEVRLKREASREPSFSGRRPSRFA”, the protein production entry was “failed”.
With “MKMGMVFVFVLLTVFMAVMSSTRVSAQSNCKNELKKSLKPCFSYLTSSYPSLPDDSDCCPSLLDISKTSVDCFCQYLNSGGSILDINANFIQARRLPEICGVDPYLASVCNEGKNFLTSIYEETPIL”, the protein production result is given as “failed”.
For the sequence “MSLINEATLAESIRRLRQGERATLAQAMTLVESRHPRHQALSTQLLDAIMPYCGNTLRLGVTGTPGAGKSTFLEAFGMLLIREGLKVAVIAVDPSSPVTGGSILGDKTRMNDLARAEAAFIRPVPSSGHLGGASQRARELMLLCEAAGYDVVIVETVGVGQSETEVARMVDCFISLQIAGGGDDLQGIKKGLMEVADLIVINKDDGDNHTNVAIARHMYESALHILRRKYDEWQPRVLTCSALEKRGIDEIWHAIIDFKTALTASGRLQQVRQQQSVEWLRKQTEEEVLNHLFANEDFDRYYRQTLLAVKNNTLSPRTGLRQLSEFIQTQYFDEGHHHHHH”, the protein production entry is on record as “not failed”.
Turning to “MSPGPQSGGQERGSMERKMVELEDTGLTFATEVDLERLQALAAEWLQVIGEDPGREGLLKTPERVAKAWAFLTRGYRQRLEEVVGGAVFPAEGSEMVVVKGVEFYSMCEHHLLPFFGKVHIGYIPDGKILGLSKFARIVDMFARRLQVQERLAVQIAEAIQEVLEPQGVGVVVEGVHLCMMMRGVEKQHSRTVTSAMLGVFRENQKTREEFLSHLRDGTA”, the protein production entry is on record as “not failed”.
Then “KKPEGKPDQKFDQKQELGRVIHLSNLPHSGYSDSAVLKLAEPYGKIKNYILMRMKSQAFIEMETREDAMAMVDHCLKKALWFQGRCVKVDLSEKYKKLV”, with “not failed”.
Turning to “MQTTEIDLRLTEVSQQLTMVLVPGLRDSDDEHWQSHWERRFPHWQRIRQREWYQADLDRWVLAIRRELSVCTQPVILIGHSFGALAACHVVQQGQEGIAGVMLVAPAEPMRFEIDDRIQASPLSVPTLTFASHNDPLMSFTRAQYWAQAWDSELVDVGEAGHINAEAGFGPWEYGLKRLAEFSEILIPNR”, the protein production result was “not failed”.
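Also: failed if final PepcDB status was selected cloned or expressed and not failed if soluble or beyond.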
